Results from article PMC12757645, “Bacillus subtilis encodes three N-acetylcysteine deacetylase enzymes that can catalyze the final step in S-(2-succino)cysteine breakdown” (The Journal of Biological Chemistry, 2025).

B1: YhaA (Bacillus subtilis subsp. subtilis str. 168) (protein)
chain: MSISTLQKEINKQLDGCFEEMVEIRRHFHMYPELSFQEEKTAAFIASYYESLGVPIRTNVGGRGVLANIEGSEPGPTVALRADFDALPIQDEKDVPYASKVPGVMHACGHDGHTAALLAVAKVLHQNRHELKGTFVMIHQHAEEYYPGGAKPMIDDGCLENTDVIFGTHLWATEPLGTILCRPGAVMAAADRFTIKVFGKGGHGAHPHDTKDAVLIGSQIVSSLQHIVSRKVNPIQSAVISTGSFIADNPFNVIADQAVLIGTARSFDENVRDILEKEIEAVVKGICSMHGASYEYTYEQGYPAVVNHPAETNHLVSTAKNTEGVQQVIDGEPQMGGEDFAYYLQNVKGTFFFTGAAPEQPERVYSHHHPKFDINEKAMLTAAKVLAGAAITYHQL
B2: YtnL (Bacillus subtilis subsp. subtilis str. 168) (protein)
chain: MSLDYWRNIEGSYPYQTTGNDILTLKEESNPVNLSTLEKQLIGIRRHLHQYPELSKEEFETTAFIKKCLKEKGIQIRPTALKTGVFADIAGESEGPAIALRADIDALPIEEKTGLPYASKHKGIMHACGHDFHTAALLGAAFLLKENQDSLKGKIRLLFQPAEEAGAGATKVIEDGQLDGIDAVIGLHNKPDIAVGTVGLKTGPLMAAVDRFKVEIEGKGAHAALPHNGFDPIIGASQLIVALQTIVSRNVNPLQSAILTVGKINGGSTWNVIPDTVVIEGTVRTFDSEVRNQVKQRFFAVTEQISAAFSLKANVKWHSGPPPLCNDEAITGLVRDAAHKAKLQVIDPAPSTAGEDFAYYLEHIPGSFAFFGTDGDHDWHHPAFTIDETAIIKASYFLYESAKRLLDSNEESKISD
B3: ScmP (Bacillus subtilis subsp. subtilis str. 168) (protein)
chain: MADKAFHTRLINMRRDLHEHPELSFQEVETTKKIRRWLEEEQIEILDVPQLKTGVIAEIKGREDGPVIAIRADIDALPIQEQTNLPFASKVDGTMHACGHDFHTASIIGTAMLLNQRRAELKGTVRFIFQPAEEIAAGARKVLEAGVLNGVSAIFGMHNKPDLPVGTIGVKEGPLMASVDRFEIVIKGKGGHAGIPNNSIDPIAAAGQIISGLQSVVSRNISSLQNAVVSITRVQAGTSWNVIPDQAEMEGTVRTFQKEARQAVPEHMRRVAEGIAAGYGAQAEFKWFPYLPSVQNDGTFLNAASEAAARLGYQTVHAEQSPGGEDFALYQEKIPGFFVWMGTNGTEEWHHPAFTLDEEALTVASQYFAELAVIVLETIK

Substrate: CC(=O)N[C@@H](CS)C(=O)O
Assay: purified protein
Format: biochemical, Bacillus subtilis
Conditions: 50 mM potassium phosphate pH 7.8, 5 mM CoCl2, 37 °C

Protein | Km | Vmax | kcat | kcat/Km
B1 | 895.8 ± 338.1 µM | 24.7 µmol/min/mg | 18.8 ± 1.3 s⁻¹ | 21000 ± 3700 M⁻¹ s⁻¹
B2 | 855.0 ± 339.2 µM | 43 µmol/min/mg | 34.2 ± 3.8 s⁻¹ | 40000 ± 11000 M⁻¹ s⁻¹
B3 | 494.5 ± 67.4 µM | 112 µmol/min/mg | 82.5 ± 9.2 s⁻¹ | 
